Reference: patent US20180334496A1 (KODIAK SCIENCES, published 2018)
Values joined by “and” are separate entries in the source; they are usually repeats but may differ in a detail not shown here. Identical values can stand only once.

B1: 34I54I59D / 32W60W101V (antibody, V domains shown)
VH: EVQLVESGGGLVQPGGSLRLSCAASGYTFTDYYINWVRQAPGKGLEWIGDINPITGDTDYNADFKRRFTFSLDTSKSTAYLQMNSLRAEDTAVYYCTREGPSFAYWGQGTLVTVSS
VL: DIQLTQSPSSLSASVGDRVTITCRSSQTIVHWNGDTYLEWYQQKPGKAPNLLIYKVSNRWSGVPSRFSGSGSGTDFTLTISSLQPEDFATYYCFQGSHVPVTFGQGTKVEIK
notes: KCD119 TAF variant; full antibody captured on protein A
B2: 48V54V59D / 32W60W101V (antibody, V domains shown)
VH: EVQLVESGGGLVQPGGSLRLSCAASGYTFTDYYMNWVRQAPGKGLEWVGDINPVTGDTDYNADFKRRFTFSLDTSKSTAYLQMNSLRAEDTAVYYCTREGPSFAYWGQGTLVTVSS
VL: DIQLTQSPSSLSASVGDRVTITCRSSQTIVHWNGDTYLEWYQQKPGKAPNLLIYKVSNRWSGVPSRFSGSGSGTDFTLTISSLQPEDFATYYCFQGSHVPVTFGQGTKVEIK
notes: as for B1
B3: 54I59D84T / 32W60W101V (antibody, V domains shown)
VH: EVQLVESGGGLVQPGGSLRLSCAASGYTFTDYYMNWVRQAPGKGLEWIGDINPITGDTDYNADFKRRFTFSLDTSKSTAYLQMTSLRAEDTAVYYCTREGPSFAYWGQGTLVTVSS
VL: DIQLTQSPSSLSASVGDRVTITCRSSQTIVHWNGDTYLEWYQQKPGKAPNLLIYKVSNRWSGVPSRFSGSGSGTDFTLTISSLQPEDFATYYCFQGSHVPVTFGQGTKVEIK
notes: as for B1
B4: 54I59D / 32W33G60W101V (antibody, V domains shown)
VH: EVQLVESGGGLVQPGGSLRLSCAASGYTFTDYYMNWVRQAPGKGLEWIGDINPITGDTDYNADFKRRFTFSLDTSKSTAYLQMNSLRAEDTAVYYCTREGPSFAYWGQGTLVTVSS
VL: DIQLTQSPSSLSASVGDRVTITCRSSQTIVHWGGDTYLEWYQQKPGKAPNLLIYKVSNRWSGVPSRFSGSGSGTDFTLTISSLQPEDFATYYCFQGSHVPVTFGQGTKVEIK
notes: KCD119 TAF variant; same label printed in three rows
B5: 54I59D / 32W54S60W101V (antibody, V domains shown)
VH: EVQLVESGGGLVQPGGSLRLSCAASGYTFTDYYMNWVRQAPGKGLEWIGDINPITGDTDYNADFKRRFTFSLDTSKSTAYLQMNSLRAEDTAVYYCTREGPSFAYWGQGTLVTVSS
VL: DIQLTQSPSSLSASVGDRVTITCRSSQTIVHWNGDTYLEWYQQKPGKAPNLLISKVSNRWSGVPSRFSGSGSGTDFTLTISSLQPEDFATYYCFQGSHVPVTFGQGTKVEIK
notes: Light label printed 32W54560W101V, read as 32W54S60W101V; also called 54I59D / 32W54560W101V
B6: 54I59D / 32W54S101V (antibody, V domains shown)
VH: EVQLVESGGGLVQPGGSLRLSCAASGYTFTDYYMNWVRQAPGKGLEWIGDINPITGDTDYNADFKRRFTFSLDTSKSTAYLQMNSLRAEDTAVYYCTREGPSFAYWGQGTLVTVSS
VL: DIQLTQSPSSLSASVGDRVTITCRSSQTIVHWNGDTYLEWYQQKPGKAPNLLISKVSNRFSGVPSRFSGSGSGTDFTLTISSLQPEDFATYYCFQGSHVPVTFGQGTKVEIK
notes: Light label printed 32W545101V, read as 32W54S101V; also called 54I59D / 32W545101V
B7: 54I59D / 32W60W101V (antibody, V domains shown)
VH: EVQLVESGGGLVQPGGSLRLSCAASGYTFTDYYMNWVRQAPGKGLEWIGDINPITGDTDYNADFKRRFTFSLDTSKSTAYLQMNSLRAEDTAVYYCTREGPSFAYWGQGTLVTVSS
VL: DIQLTQSPSSLSASVGDRVTITCRSSQTIVHWNGDTYLEWYQQKPGKAPNLLIYKVSNRWSGVPSRFSGSGSGTDFTLTISSLQPEDFATYYCFQGSHVPVTFGQGTKVEIK
notes: as for B1
B8: 54I59D / 50I60W101V (antibody, V domains shown)
VH: EVQLVESGGGLVQPGGSLRLSCAASGYTFTDYYMNWVRQAPGKGLEWIGDINPITGDTDYNADFKRRFTFSLDTSKSTAYLQMNSLRAEDTAVYYCTREGPSFAYWGQGTLVTVSS
VL: DIQLTQSPSSLSASVGDRVTITCRSSQTIVHSNGDTYLEWYQQKPGKAPILLIYKVSNRWSGVPSRFSGSGSGTDFTLTISSLQPEDFATYYCFQGSHVPVTFGQGTKVEIK
notes: as for B1
B9: 54I59D / 54G60W101 (antibody, V domains shown)
VH: EVQLVESGGGLVQPGGSLRLSCAASGYTFTDYYMNWVRQAPGKGLEWIGDINPITGDTDYNADFKRRFTFSLDTSKSTAYLQMNSLRAEDTAVYYCTREGPSFAYWGQGTLVTVSS
VL: DIQLTQSPSSLSASVGDRVTITCRSSQTIVHSNGDTYLEWYQQKPGKAPNLLIGKVSNRWSGVPSRFSGSGSGTDFTLTISSLQPEDFATYYCFQGSHVPVTFGQGTKVEIK
B10: 54I59D / 54S60W101V (antibody, V domains shown)
VH: EVQLVESGGGLVQPGGSLRLSCAASGYTFTDYYMNWVRQAPGKGLEWIGDINPITGDTDYNADFKRRFTFSLDTSKSTAYLQMNSLRAEDTAVYYCTREGPSFAYWGQGTLVTVSS
VL: DIQLTQSPSSLSASVGDRVTITCRSSQTIVHSNGDTYLEWYQQKPGKAPNLLISKVSNRWSGVPSRFSGSGSGTDFTLTISSLQPEDFATYYCFQGSHVPVTFGQGTKVEIK
notes: Light label printed 54560W101V, read as 54S60W101V; also called 54I59D / 54560W101V
B11: 54I59D / 101V (antibody, V domains shown)
VH: EVQLVESGGGLVQPGGSLRLSCAASGYTFTDYYMNWVRQAPGKGLEWIGDINPITGDTDYNADFKRRFTFSLDTSKSTAYLQMNSLRAEDTAVYYCTREGPSFAYWGQGTLVTVSS
VL: DIQLTQSPSSLSASVGDRVTITCRSSQTIVHSNGDTYLEWYQQKPGKAPNLLIYKVSNRFSGVPSRFSGSGSGTDFTLTISSLQPEDFATYYCFQGSHVPVTFGQGTKVEIK
notes: as for B1
B12: 54V56V / 101V (antibody, V domains shown)
VH: EVQLVESGGGLVQPGGSLRLSCAASGYTFTDYYMNWVRQAPGKGLEWIGDINPVTVDTSYNADFKRRFTFSLDTSKSTAYLQMNSLRAEDTAVYYCTREGPSFAYWGQGTLVTVSS
VL: DIQLTQSPSSLSASVGDRVTITCRSSQTIVHSNGDTYLEWYQQKPGKAPNLLIYKVSNRFSGVPSRFSGSGSGTDFTLTISSLQPEDFATYYCFQGSHVPVTFGQGTKVEIK
notes: as for B1
B13: 54V59D / 32D50I101V (antibody, V domains shown)
VH: EVQLVESGGGLVQPGGSLRLSCAASGYTFTDYYMNWVRQAPGKGLEWIGDINPVTGDTDYNADFKRRFTFSLDTSKSTAYLQMNSLRAEDTAVYYCTREGPSFAYWGQGTLVTVSS
VL: DIQLTQSPSSLSASVGDRVTITCRSSQTIVHDNGDTYLEWYQQKPGKAPILLIYKVSNRFSGVPSRFSGSGSGTDFTLTISSLQPEDFATYYCFQGSHVPVTFGQGTKVEIK
notes: as for B1
B14: 54V59D / 32D60W101V (antibody, V domains shown)
VH: EVQLVESGGGLVQPGGSLRLSCAASGYTFTDYYMNWVRQAPGKGLEWIGDINPVTGDTDYNADFKRRFTFSLDTSKSTAYLQMNSLRAEDTAVYYCTREGPSFAYWGQGTLVTVSS
VL: DIQLTQSPSSLSASVGDRVTITCRSSQTIVHDNGDTYLEWYQQKPGKAPNLLIYKVSNRWSGVPSRFSGSGSGTDFTLTISSLQPEDFATYYCFQGSHVPVTFGQGTKVEIK
notes: as for B1
B15: 54V59D / 32W50I101V (antibody, V domains shown)
VH: EVQLVESGGGLVQPGGSLRLSCAASGYTFTDYYMNWVRQAPGKGLEWIGDINPVTGDTDYNADFKRRFTFSLDTSKSTAYLQMNSLRAEDTAVYYCTREGPSFAYWGQGTLVTVSS
VL: DIQLTQSPSSLSASVGDRVTITCRSSQTIVHWNGDTYLEWYQQKPGKAPILLIYKVSNRFSGVPSRFSGSGSGTDFTLTISSLQPEDFATYYCFQGSHVPVTFGQGTKVEIK
notes: as for B1
B16: 54V59D / 34D50V101V (antibody, V domains shown)
VH: EVQLVESGGGLVQPGGSLRLSCAASGYTFTDYYMNWVRQAPGKGLEWIGDINPVTGDTDYNADFKRRFTFSLDTSKSTAYLQMNSLRAEDTAVYYCTREGPSFAYWGQGTLVTVSS
VL: DIQLTQSPSSLSASVGDRVTITCRSSQTIVHSNDDTYLEWYQQKPGKAPVLLIYKVSNRFSGVPSRFSGSGSGTDFTLTISSLQPEDFATYYCFQGSHVPVTFGQGTKVEIK
notes: as for B1
B17: 54V59D / 34D60W101V (antibody, V domains shown)
VH: EVQLVESGGGLVQPGGSLRLSCAASGYTFTDYYMNWVRQAPGKGLEWIGDINPVTGDTDYNADFKRRFTFSLDTSKSTAYLQMNSLRAEDTAVYYCTREGPSFAYWGQGTLVTVSS
VL: DIQLTQSPSSLSASVGDRVTITCRSSQTIVHSNDDTYLEWYQQKPGKAPNLLIYKVSNRWSGVPSRFSGSGSGTDFTLTISSLQPEDFATYYCFQGSHVPVTFGQGTKVEIK
notes: as for B1

What was measured:
[1] = target: T1, serum purified human Complement Factor D (human, UniProt P00746 26-253); test: SPR Biacore, antibody on protein A chip, single cycle kinetics, 25 C;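 note: antibodies captured to roughly 70 RU on the protein A surface in HBS-EP+ running buffer, with kinetic constants derived by BIAevaluation fitting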
T1 construct: Serum purified protein flowed over the captured antibodies; also called CFD; human CFD
Protocol: (§1) Antibodies were diluted to 0.5 ug/ml in HBS-EP+ buffer and captured on a protein A chip for 25 seconds to reach approximately 70 resonance units. […] Binding kinetic information was obtained by the BIAevaluation software (GE).

[2] = target: T1, serum purified human Complement Factor D; test: SPR Biacore, antibody on protein A chip, single cycle kinetics, 37 C;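 note: antibodies captured on the protein A surface to roughly 70 RU in HBS-EP+ buffer, with rate and affinity constants fitted using BIAevaluation software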
Protocol: as §1

T1 sequence (P00746 26-253): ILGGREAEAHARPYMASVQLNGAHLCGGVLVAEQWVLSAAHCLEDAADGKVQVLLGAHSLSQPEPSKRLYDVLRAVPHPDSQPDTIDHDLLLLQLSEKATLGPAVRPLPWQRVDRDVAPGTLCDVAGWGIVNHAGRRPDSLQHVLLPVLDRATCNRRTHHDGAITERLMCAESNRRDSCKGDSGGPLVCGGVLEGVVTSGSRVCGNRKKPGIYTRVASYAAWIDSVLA

Binder | Kd [1] | koff [1] | kon [1] | Kd [2] | koff [2] | kon [2]
B1 | 0.0211 nM | 0.000136 s⁻¹ | 6.45e+06 M⁻¹ s⁻¹ | 0.0217 nM | 0.000279 s⁻¹ | 1.29e+07 M⁻¹ s⁻¹
B2 | 0.0159 nM | 9.5e-05 s⁻¹ | 5.96e+06 M⁻¹ s⁻¹ | 0.0212 nM | 0.000278 s⁻¹ | 1.31e+07 M⁻¹ s⁻¹
B3 | 0.0169 nM | 8.43e-05 s⁻¹ | 4.99e+06 M⁻¹ s⁻¹ | 0.0258 nM | 0.000365 s⁻¹ | 1.41e+07 M⁻¹ s⁻¹
B4 | 0.0514 nM and 0.0534 nM and 0.0778 nM | 0.0004 s⁻¹ and 0.000328 s⁻¹ and 0.000352 s⁻¹ | 7.78e+06 M⁻¹ s⁻¹ and 6.14e+06 M⁻¹ s⁻¹ and 4.53e+06 M⁻¹ s⁻¹ | 0.105 nM and 0.0979 nM and 0.135 nM | 0.0012 s⁻¹ and 0.00148 s⁻¹ and 0.00117 s⁻¹ | 1.14e+07 M⁻¹ s⁻¹ and 1.51e+07 M⁻¹ s⁻¹ and 8.69e+06 M⁻¹ s⁻¹
B5 | 0.00858 nM | 5.37e-05 s⁻¹ | 6.25e+06 M⁻¹ s⁻¹ | 0.0124 nM | 0.000136 s⁻¹ | 1.1e+07 M⁻¹ s⁻¹
B6 | 0.00948 nM | 7.29e-05 s⁻¹ | 7.69e+06 M⁻¹ s⁻¹ | 0.011 nM | 0.000155 s⁻¹ | 1.41e+07 M⁻¹ s⁻¹
B7 | – | 3.5e-05 s⁻¹ and 8.32e-05 s⁻¹ and 6.85e-05 s⁻¹ | 7.57e+06 M⁻¹ s⁻¹ and 4.91e+06 M⁻¹ s⁻¹ and 5.83e+06 M⁻¹ s⁻¹ | 0.0131 nM and 0.00972 nM and 0.00501 nM | – | 1.5e+07 M⁻¹ s⁻¹ and 6.86e+06 M⁻¹ s⁻¹ and 1.17e+07 M⁻¹ s⁻¹
B8 | 0.0121 nM | 6.67e-05 s⁻¹ | 5.53e+06 M⁻¹ s⁻¹ | 0.0318 nM | 0.000329 s⁻¹ | 1.04e+07 M⁻¹ s⁻¹
B9 | 0.0125 nM | 8.54e-05 s⁻¹ | 6.83e+06 M⁻¹ s⁻¹ | 0.00989 nM | 0.000118 s⁻¹ | 1.19e+07 M⁻¹ s⁻¹
B10 | 0.00985 nM | 7.08e-05 s⁻¹ | 7.19e+06 M⁻¹ s⁻¹ | 0.0119 nM | 0.000148 s⁻¹ | 1.24e+07 M⁻¹ s⁻¹
B11 | 0.0204 nM and 0.0267 nM and 0.00908 nM | 0.000152 s⁻¹ and 0.000154 s⁻¹ and 5.74e-05 s⁻¹ | 7.43e+06 M⁻¹ s⁻¹ and 5.78e+06 M⁻¹ s⁻¹ and 6.32e+06 M⁻¹ s⁻¹ | 0.0475 nM and 0.0184 nM | 0.000437 s⁻¹ and 0.000222 s⁻¹ | 9.19e+06 M⁻¹ s⁻¹ and 1.21e+07 M⁻¹ s⁻¹
B12 | 0.0645 nM | 0.000351 s⁻¹ | 5.44e+06 M⁻¹ s⁻¹ | 0.107 nM | 0.00104 s⁻¹ | 9.69e+06 M⁻¹ s⁻¹
B13 | 0.0197 nM | 0.00016 s⁻¹ | 8.11e+06 M⁻¹ s⁻¹ | 0.0274 nM | 0.00041 s⁻¹ | 1.5e+07 M⁻¹ s⁻¹
B14 | 0.0102 nM | 0.000128 s⁻¹ | 1.25e+07 M⁻¹ s⁻¹ | 0.0415 nM | 0.000371 s⁻¹ | 8.93e+06 M⁻¹ s⁻¹
B15 | 0.0158 nM | 0.000105 s⁻¹ | 6.64e+06 M⁻¹ s⁻¹ | 0.0223 nM | 0.000305 s⁻¹ | 1.37e+07 M⁻¹ s⁻¹
B16 | 0.0257 nM | 0.000187 s⁻¹ | 7.26e+06 M⁻¹ s⁻¹ | 0.0591 nM | 0.00079 s⁻¹ | 1.34e+07 M⁻¹ s⁻¹
B17 | 0.0213 nM | 0.000187 s⁻¹ | 8.8e+06 M⁻¹ s⁻¹ | 0.0531 nM | 0.00083 s⁻¹ | 1.56e+07 M⁻¹ s⁻¹
